This is an account of results in PMC3568255 (Protein expression and purification, 2012).

*: point of attachment. Biotin = O=C1N[C@H]2[C@H](CS[C@H]2CCCCC(=O)*)N1

The data set “SEC” deals with the molecule itself. Description: SEC.
Data set [1] concerns the target MBP-CLR ECD-H6:RAMP2 ECD-H6 complex (recombinant AM receptor ECD complex) (human, UniProt Q16602 29-144; O60895 36-140). Nature of the data set: AlphaScreen or HTRF.

Chain of MBP-CLR ECD-H6:RAMP2 ECD-H6 complex (recombinant AM receptor ECD complex) (Q16602 29-144, one chain of several): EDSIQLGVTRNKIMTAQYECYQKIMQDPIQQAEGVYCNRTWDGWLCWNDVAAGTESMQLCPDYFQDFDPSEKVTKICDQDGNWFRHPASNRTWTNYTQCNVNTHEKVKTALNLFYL

B1: RAMP2 ECD-H6 (RAMP2.36-140-H6), isolated extracellular domain of receptor activity modifying protein 2 (domain or fragment, human, UniProt O60895 36-140, looked up)
chain: NPHEALAQPLPTTGTPGSEGGTVKNYETAVQFCWNHYKDQMDPIEKDWCDWAMISRPYSTLRDCLEHFAELFDLGFPNPLAERIIFETHQIHFANCSLVQPTFSD
With B1, the “stoichiometry N” value in “SEC” amounted to 3.

B2: B-AM(19–52)NH2[C21A] (peptide)
peptide: Biotin-GTATVQKLAHQIYQFTDKDKDNVAPRSKISPQGY-NH2
SMILES: CC[C@H](C)[C@H](NC(=O)[C@H](CCC(N)=O)NC(=O)[C@H](Cc1c[nH]cn1)NC(=O)[C@H](C)NC(=O)[C@H](CC(C)C)NC(=O)[C@H](CCCCN)NC(=O)[C@H](CCC(N)=O)NC(=O)[C@@H](NC(=O)[C@@H](NC(=O)[C@H](C)NC(=O)[C@@H](NC(=O)CNC(=O)CCCC[C@@H]1SC[C@@H]2NC(=O)N[C@@H]21)[C@@H](C)O)[C@@H](C)O)C(C)C)C(=O)N[C@@H](Cc1ccc(O)cc1)C(=O)N[C@@H](CCC(N)=O)C(=O)N[C@@H](Cc1ccccc1)C(=O)N[C@H](C(=O)N[C@@H](CC(=O)O)C(=O)N[C@@H](CCCCN)C(=O)N[C@@H](CC(=O)O)C(=O)N[C@@H](CCCCN)C(=O)N[C@@H](CC(=O)O)C(=O)N[C@@H](CC(N)=O)C(=O)N[C@H](C(=O)N[C@@H](C)C(=O)N1CCC[C@H]1C(=O)N[C@@H](CCCNC(=N)N)C(=O)N[C@@H](CO)C(=O)N[C@@H](CCCCN)C(=O)N[C@H](C(=O)N[C@@H](CO)C(=O)N1CCC[C@H]1C(=O)N[C@@H](CCC(N)=O)C(=O)NCC(=O)N[C@@H](Cc1ccc(O)cc1)C(N)=O)[C@@H](C)CC)C(C)C)[C@@H](C)O
Take B2: in data set [1], the binding result is on record as “binds”.
